T1: mouse odorant receptor OREG (Mus musculus, UniProt Q920P2)
T1 construct: expressed in transfected cells; host or cells: 293T cells (with or without co-transfected REEP1/RTP1/RTP2) and Hana3A cells (293T stably expressing mouse REEP1, RTP1, RTP2, Galpha-olf)
T1 sequence (Q920P2 1-313): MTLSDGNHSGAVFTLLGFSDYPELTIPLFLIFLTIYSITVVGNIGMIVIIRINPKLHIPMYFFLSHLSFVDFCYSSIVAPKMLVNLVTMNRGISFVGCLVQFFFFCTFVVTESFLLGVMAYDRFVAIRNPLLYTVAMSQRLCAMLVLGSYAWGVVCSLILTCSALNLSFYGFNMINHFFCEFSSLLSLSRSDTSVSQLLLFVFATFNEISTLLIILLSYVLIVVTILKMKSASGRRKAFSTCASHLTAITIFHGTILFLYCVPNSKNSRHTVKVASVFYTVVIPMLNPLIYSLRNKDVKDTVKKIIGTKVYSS


How the values were obtained:
[1] = system: olfr62; assay: CRE-luciferase reporter gene assay, olfr62; type: cell-based, mouse; conditions: Hana3A cells
Method: Four ORs (S6/79, S18, S46 and S50) previously assayed using other techniques (see, e.g., Malnic, B., et al. (1999) Cell 96, 713-723; herein incorporated by reference in its entirety) were tested against an assay panel of aliphatic alcohols, aldehydes and acids and some other odorants. Additionally, five “orphan” class I ORs (MOR23-1, MOR31-4, MOR31-6, MOR32-5 and MOR32-11) whose cognate ligands were unknown were tested. At a suprathreshold concentration of 100 uM, all these ORs were odorant selective, responding to only a small subset of the odorants tested (see FIG. 11A). This specificity was retained at lower, more physiologically relevant concentrations. Many of these ORs responded to odorants present in micromolar concentrations. The cell-surface expression of these ORs by living-cell immunofluorescence were evaluated. Some ORs (S18, MOR31-4, MOR31-6 and MOR32-5) were strongly expressed while other ORs (S6, S50, MOR23-1, MOR32-11) were weakly expressed (see FIG. 12). The present invention is not limited to a particular mechanism. Indeed, an understanding of the mechanism is not necessary to practice the present invention. […] Finally, two additional orphan class II ORs, MOR203-1 and olfr62, were tested against a panel of 139 odorants. […] Olfr62 responded to coumarine and piperonal (see FIG. 11C). […] When parental 293T cells for these ORs were used in this luciferase assay, little or no response to the odorants was observed. The present invention is not limited to a particular mechanism. Indeed, an understanding of the mechanism is not necessary to practice the present invention.
Dual-Glo system (Promega) for luciferase assay was used. CRE-Luciferase (Stratagene) was used to measure the receptor activities. Renilla luciferase driven by constitutively active SV40 promoter (pRL-SV40: Promega) was used as an internal control. Cells were plated on poly-D-lysine coated 96 well plates (BIOCOAT, Beckton Dickinson). After 8 hours (for experiments shown in FIGS. 8B and 8C) or 12 hours (for experiments shown in FIG. 8D and FIG. 11) after transfection, the medium was replaced with CD293 chemically defined medium (Invitrogen) and the plates were incubated for one hour at 37 degrees C. The medium was replaced with 50 ul of odorant solutions dissolved in CD293 and incubated for 10 hours (for experiments shown in FIGS. 8B and 8C) or 4 hours (for experiments shown in FIG. 8D and FIG. 11) at 37 degrees C. The manufacture's protocol for measuring luciferase and Renilla luciferase activities was followed. Luminescence was measured using Wallac Victor 1420 (Perkin-Elmer). Normalized luciferase activity was calculated as [Luc (N)-Luc (0)]/RL (N), where Luc (N)=Luminescent count of a certain well, Luc (0)=Luminescent count without odorant for each OR, and RL (N)=Luminescent count of Renilla Luciferase of each well. For cAMP assays, cells were plated onto 24-well plate. […]. Prism software (Graphpad) was used for data analysis. […]

[2] = system: MOR203-1; assay: Living-cell staining of cell-surface MOR203-1; type: cell-based, mouse; conditions: accessory protein co-transfected in 293T cells
Source text: After hypothesizing that mammalian ORs require accessory protein(s) for functional cell surface expression, a search was instituted for detecting such molecule(s). Long-SAGE (serial analysis of gene expression) libraries (see, e.g., Saha, S., et al., (2002) Nat Biotechnol 20, 508-512; herein incorporated by reference in its entirety) were constructed from single olfactory neurons as well as neurons from the vomeronasal organ and genes were collected that are expressed by these neurons. To identify candidate genes expressed by the olfactory neurons Digital Differential Display (see, e.g., http://www, followed by, .ncbi.nlm.nih.gov/UniGene/info_ddd.shtml) was also used. Candidate genes were investigated for ORFs that encode membrane associated proteins. Genes were selected with similarities to known chaperones and cloned the cDNAs from olfactory epithelium cDNAs. The mRNA expression of each gene was verified by in situ hybridization. After isolating and subcloning into mammalian expression vectors, each cDNA together with a mouse OR (MOR203-1) tagged with a 20 N-terminal amino acids of rhodopsin (Rho-tag), was transfected into 293T cells. We measured whether these clones had any effect on the cell-surface expression of ORs by staining living cells using antibodies against the Rho-tag (see, e.g., Laird, D. W., and Molday, R. S. (1988) Invest Opthalmol Vis Sci 29, 419-428; herein incorporated by reference in its entirety). When MOR203-1 was transfected alone, antibody staining detected only faint cell-surface expression in less than 1% of the cells. A schematic diagram outlining the screening procedure utilized with the present invention is provided at FIG. 1.
293T cells were maintained in minimal essential medium containing 10% fetal bovine serum (M10). Lipofectamine 2000 (Invitrogen) was used for transfection. In live-cell staining, 16 hours after transfection, cells were incubated in M10 containing anti rhodopsin antibody, 4D2 (see, e.g., Laird, D. W., and Molday, R. S. (1988) Invest Opthalmol V is Sci 29, 419-428; herein incorporated by reference in its entirety) and 15 mM NaN3 at 4 degrees C. for 1 hour. After washing, cells were incubated with Cy3-conjugated anti mouse IgG (Jackson Immunologicals), washed and mounted. For FACS analysis, 4D2 and PE-conjugated anti mouse IgG (Jackson Immunologicals) were used to monitor the Rho tagged receptor expression. Anti HA rabbit antibodies (Sigma) and Alexa 488 conjugated anti rabbit IgG (Molecular Probes) was used to stain the HA-β2 adrenergic receptor. To establish the Hana3a cells, 1 ug/ml of puromycin was used for selection. 96 colonies were picked and assayed using luciferase assay using OREG.

[3] = molecular target: T1, mouse odorant receptor OREG; assay: CRE-luciferase reporter gene assay, OREG; type: cell-based; conditions: 293T cells; compared to OR alone or control pCI
Source text: Poor odorant evoked signaling activity in heterologous cell culture systems expressing ORs has been attributed to the poor cell surface expression of ORs. The identification of REEP and/or RTP allowed a direct assessment of this issue. A luciferase reporter gene assay was employed in which a cAMP responsive element (CRE) mediated luciferase gene expression (see FIG. 8A). Because OR activation leads to an increase in cAMP, activation of the mouse odorant receptor OREG by its ligand eugenol was measured in the presence and absence of REEP and/or RTP (see, e.g., Kajiya, K., et al. (2001) J Neurosci 21, 6018-6025; Touhara, K., et al., (1999) Proc Natl Acad Sci USA 96, 4040-4045; each herein incorporated by reference in their entireties). As reported previously, eugenol increased levels of OREG dependent luciferase activity (see, e.g., Katada, S., et al. (2003) Biochem Biophys Res Commun 305, 964-969; herein incorporated by reference in its entirety).
To facilitate analysis of odorant-OR interactions, 293T cell lines were established which stably express REEP1, RTP1, RTP2 and Gαolf, the G protein alpha subunit that couples to OR (see, e.g., Belluscio, L., et al. (1998) Neuron 20, 69-81; Jones, D. T., and Reed, R. R. (1989). Science 244, 790-795; each herein incorporated by reference in their entireties). To establish such cells, linearized expression vectors containing mouse REEP1, RTP1, RTP2 and Gαolf ORFs were transfected into 293T cells with PGK-Pac (puromycin resistant gene) (see, e.g., Watanabe, S., et al. (1995) Biochem Biophys Res Commun 213, 130-137; herein incorporated by reference in its entirety). […] Enhanced cell-surface expression was observed when OREG or other ORs were transfected in Hana3A cells and immunostained (see FIG. 10). […] Expression of Gαolf alone in 293T cells had little or no effect on OR activation using this assay.
Dual-Glo system (Promega) for luciferase assay was used. CRE-Luciferase (Stratagene) was used to measure the receptor activities. Renilla luciferase driven by constitutively active SV40 promoter (pRL-SV40: Promega) was used as an internal control. Cells were plated on poly-D-lysine coated 96 well plates (BIOCOAT, Beckton Dickinson). After 8 hours (for experiments shown in FIGS. 8B and 8C) or 12 hours (for experiments shown in FIG. 8D and FIG. 11) after transfection, the medium was replaced with CD293 chemically defined medium (Invitrogen) and the plates were incubated for one hour at 37 degrees C. The medium was replaced with 50 ul of odorant solutions dissolved in CD293 and incubated for 10 hours (for experiments shown in FIGS. 8B and 8C) or 4 hours (for experiments shown in FIG. 8D and FIG. 11) at 37 degrees C. The manufacture's protocol for measuring luciferase and Renilla luciferase activities was followed. Luminescence was measured using Wallac Victor 1420 (Perkin-Elmer). Normalized luciferase activity was calculated as [Luc (N)-Luc (0)]/RL (N), where Luc (N)=Luminescent count of a certain well, Luc (0)=Luminescent count without odorant for each OR, and RL (N)=Luminescent count of Renilla Luciferase of each well. For cAMP assays, cells were plated onto 24-well plate. […]. Prism software (Graphpad) was used for data analysis.

Molecule	response of olfr62 to odorant (luciferase) [1]	cell surface expression of MOR203-1 [2]	OREG activity by luciferase, accessory protein co-expressed [3]
O=Cc1ccc2c(c1)OCO2 [piperonal, Piperonal]	responded		
O=C1Cc2ccccc2O1 [2-coumaranone, 2-Coumaranone]	preferred ligand		
O=c1ccc2ccccc2o1 [coumarin, Coumarin]	responded		
RTP2: a close relative of RTP1; murine SEQ ID NO: 34, human SEQ ID NO: 38 (protein, listed as Mus musculus) MSTSLTTCEWKKVFYEKMEVAKPADSWELIIDPTLKPNELGPGWKQYLEQHASGRFHCSWCWHTWQSANVVILFHMHLDRAQRVGSVRMRVFKQLCYQCGTSRLDESSMLEENIEGLVDNLITSLREQCYDEDGGQYRIHVASRPDSGLHRSEFCEACQEGIVHWKPSEKLLEEDAAYTDASKKKGQAGFISSFFSFRWCLFWGTLCLVIVYLQFFRGRSGFL		also enhanced cell surface expression	enhanced luciferase activities compared to OR alone
RTP4: other member of the RTP family; murine SEQ ID NO: 36 (protein, listed as Mus musculus) MLFPDDFSTWEQTFQELMQEEKPGAKWSLHLDKNIVPDGAALGWRQHQQTVGRFQCSRCCRSWTSAQVMILCHMYPDTLKSQGQARMRIFGQKCQKCFGCQFETPKFSTEIIKRILNNLVNYILQRYYGHRKIALTSNASLGEKVTLDGPHDTRNCEACSLNSHGRCALAHKVKPPRSPSPLPNSSSPSKSCPPPPQTRNTDFGNKTLQDFGNRTFQGCREPPQREIEPPLFLFLSIAAFALFSLFTR		not observed	did not produce a significant increase
REEP2: other member of the REEP family; murine SEQ ID NO: 22 (protein, listed as Mus musculus) MVSWIISRLVVLIFGTLYPAYSSYKAVKTKNVKEYVKWMMYWIVFAFFTTAETLTDIILSWFPFYFELKIAFVIWLLSPYTKGSSVLYRKFVHPTLSNKEKEIDEYITQARDKSYETMMRVGKRGLNLAANAAVTAAAKGQGVLSEKLRSFSMQDLTLIRDEDALPLQGPDGRLQPGPVGLLDTIEDLGDEPALSLRSSTSQPDPRTETSEDDLGDKAPKRTKPIKKVPRAEPPASKTLKTRPKKKSSGGGDSA		not observed	
